Results on eight molecules are retold here after patent US6133431.

In experiment [1] the target is IgG in human serum. Description: batch adsorption from human serum with 20 µg/ml Model IC, peptide on GCL2000m gel (2.6 mg/ml), not sterilised, N-Assay TIA kit.
Experiment [2] concerns the target thermally coagulated immunoglobulin complexes. Description: batch adsorption from human serum with 20 µg/ml Model IC, peptide on GCL2000m gel (2.6 mg/ml), not sterilised, C1q-CIC enzyme immunoassay.
The target is the same in experiment [3]. Put plainly: batch adsorption from human serum with 20 µg/ml Model IC, peptide on GCL2000m gel (2.1 mg/ml), 37 °C 2 h, not sterilised, C1q-CIC enzyme immunoassay.
Experiment [4] deals with IgG in human serum. Description: batch adsorption from human serum with 20 µg/ml Model IC, peptide on GCL2000m gel (2.1 mg/ml), 37 °C 2 h, not sterilised, N-Assay TIA kit.
Experiment [5] addresses IgG in human serum. Description: batch adsorption from human serum with 20 µg/ml Model IC, peptide on GCL2000m gel (2.5 mg/ml), not sterilised, N-Assay TIA kit.
Experiment [6] deals with thermally coagulated immunoglobulin complexes. Put plainly: batch adsorption from human serum with 20 µg/ml Model IC, peptide on GCL2000m gel (2.5 mg/ml), not sterilised, C1q-CIC enzyme immunoassay.
Experiment [7] has the same target. Put plainly: batch adsorption from human serum with 20 µg/ml Model IC, peptide on AF-Torecyl Toyopearl 650 (3.6 mg/ml), not sterilised, C1q-CIC enzyme immunoassay.
Experiment [8] has as its target IgG in human serum. Put plainly: batch adsorption from human serum with 20 µg/ml Model IC, peptide on AF-Torecyl Toyopearl 650 (3.6 mg/ml), not sterilised, N-Assay TIA kit.
Experiment [9] deals with thermally coagulated immunoglobulin complexes. Put plainly: batch adsorption from human serum with 20 µg/ml Model IC, peptide on GC700m gel (4.0 mg/ml), not sterilised, C1q-CIC enzyme immunoassay.
Experiment [10] concerns the target IgG in human serum. Description: batch adsorption from human serum with 20 µg/ml Model IC, peptide on GC700m gel (4.0 mg/ml), not sterilised, N-Assay TIA kit.
The target in experiment [11] is IgG4 subclass in human serum. Description: batch adsorption from the serum of a healthy subject, peptide on Thiopropyl Sepharose 6B (0.8 mg/ml), supernatant by immune diffusion (SRID).
The target in experiment [12] is IgG3 subclass in human serum. Described as above.
In experiment [13] the target is IgG2 subclass in human serum. The experiment is described as above.
Experiment [14] has as its target IgG1 subclass in human serum. The experiment is described as above.
In experiment [15] the target is circulating immune complexes in the serum of a patient suffering from rheumatism. Description: batch adsorption from the serum of a patient suffering from rheumatism, peptide on Thiopropyl Sepharose 6B (0.8 mg/ml), 37 °C 2 h, supernatant by C1q-CIC kit.
Experiment [16] deals with IgG in human serum. Put plainly: batch adsorption from the serum of a healthy subject, peptide on Thiopropyl Sepharose 6B (0.8 mg/ml), 37 °C 2 h, supernatant by N-Assay TIA kit.
A further experiment has as its target IgM in human serum. The experiment is described as above.
For experiment [17], the target named is thermally coagulated immunoglobulin complexes. Put plainly: batch adsorption from healthy human serum with 20 µg/ml thermally coagulated complexes, peptide on Thiopropyl Sepharose 6B (0.8 mg/ml), 37 °C 2 h, supernatant by C1q-CIC kit.
The target in experiment [18] is IgG in human serum. Put plainly: batch adsorption from human serum with 20 µg/ml Model IC, peptide on GC700m gel (2.6 mg/ml), not sterilised, N-Assay TIA kit.
Experiment [19] addresses thermally coagulated immunoglobulin complexes. Put plainly: batch adsorption from human serum with 20 µg/ml Model IC, peptide on GC700m gel (2.6 mg/ml), not sterilised, C1q-CIC enzyme immunoassay.

Changes are numbered by the printed parent chain.

B1: MP47K3 peptide (peptide)
peptide: MTTYKLVINGKTLKGETTTKAVDAETAEKAFKQYANDNGVDGVWTYDPATKTFTVTEKKK
For the molecule B1, the IgG adsorption ratio (%) in the experiment with IgG in human serum [1] came to 70%. The IC adsorption ratio (%) in [2] came out at 35%.

B2: MK3P47 peptide (peptide)
peptide: MKKKTTYKLVINGKTLKGETTTKAVDAETAEKAFKQYANDNGVDGVWTYDPATKTFTVTE
Regarding B2, the IC adsorption ratio (%) in [3] is 35%. Moreover, in the experiment with IgG in human serum [4], the IgG adsorption ratio (%) is 85%.

B3: MK3G56 peptide (peptide)
peptide: B2 peptide with P51D
As to B3, in the experiment with IgG in human serum [5], the IgG adsorption ratio (%) stood at 70%. Besides, the IC adsorption ratio (%) in [6] is 30%.

B4: MK3-7M peptide (peptide)
peptide: B2 peptide with V10I, I11L, E28A, A33V, V46E
For the molecule B4, the IC adsorption ratio (%) in [7] is 35%. The IgG adsorption ratio (%) with IgG in human serum [8] was 75%.

B5: MP47C peptide (peptide)
peptide: MTTYKLVINGKTLKGETTTKAVDAETAEKAFKQYANDNGVDGVWTYDPATKTFTVTEC
On to B5, for which the IC adsorption ratio (%) in experiment [9] worked out at 65%. The IgG adsorption ratio (%) with IgG in human serum [10] turned out to be 90%.

B6: peptide having a sequence consisting of 57 residues of domain C3 of protein G with cysteine added to an N-terminus (peptide)
peptide: CTTYKLVINGKTLKGETTTKAVDAETAEKAFKQYANDNGVDGVWTYDDATKTFTVTE
As for B6, the adsorption ratio of IgG subclasses (%) in experiment [11] is 65.7%; in [12] it was 63.2%; in [13], 78.9%; in experiment [14], 93.2%. The adsorption ratio of immune complexes (%) in [15] is 29.3%. Also, the results for the adsorption ratio of immunoglobulins (%) with IgG in human serum [16] and with IgM in human serum were 83.4% and 2.7%, respectively. For the same molecule, the adsorption ratio of thermally coagulated complexes (%) in experiment [17] was 41.7%.

B7: MG56 peptide (peptide)
peptide: B6 peptide with C1M
B7: the IC adsorption ratio (%) in experiment [9] came to 30%. Moreover, in the experiment with IgG in human serum [10], the IgG adsorption ratio (%) turned out to be 65%.

B8: MP47 peptide (peptide)
peptide: B6 peptide with C1M, D48P
In the case of B8, the IgG adsorption ratio (%) with IgG in human serum [18] worked out at 60%. Moreover, the IC adsorption ratio (%) in [19] worked out at 35%.
